Reference: paper PMC7716773, “Known Evolutionary Paths Are Accessible to Engineered ß-Lactamases Having Altered Protein Motions at the Timescale of Catalytic Turnover” (Frontiers in Molecular Biosciences, 2020)

Test system: CO/N=C(\C(=O)N[C@@H]1C(=O)N2C(C(=O)O)=C(COC(C)=O)CS[C@H]12)c1csc(N)n1
Assay: purified protein
Conditions: 27°C, cefotaxime 12.5-200 μM, enzyme 5–70 nM

“TEM-1 ß-lactamase (TEM-1) (Escherichia coli)” was tested, and the Km was 1,500 ± 900 μM, the kcat was 1 ± 0.5 s⁻¹ and the kcat/Km was 680 ± 530 M⁻¹ s⁻¹.
